Assay results published in the Human Domainome abundance scans (Beltran et al. 2025).
± gives the uncertainty stated by the source.

B1: V(D)J recombination-activating protein 2, residues 415 to 491; numbered along this chain, P55895 (parent)
chain: YWITCCPTCDVDINTWVPFYSTELNKPAMIYCSHGDGHWVHAQCMDLAERTLIHLSAGSNKYYCNEHVEIARALHTP

Variants of: B1
Assay: abundance fitness (aPCA) (normalised: wild type 0, dead -1); higher = more abundant; growth selection in yeast, the domain comes from the species named
Conditions: Homo sapiens

**Q.** With YWITCCPTCDVDINTWVPFYSTELNKPAMIYCSHGDGHWVHIQCMDLAERTLIHLSAGSNKYYCNEHVEIARALHTP [A42I] as the variant, how does the abundance fitness read?
**A.** -0.563 ± 0.38

**Q.** For YWITCCPTCDVDINTWVPFYSTELNKPAMIYCSHGDGHWVHKQCMDLAERTLIHLSAGSNKYYCNEHVEIARALHTP [A42K], which abundance fitness is on record?
**A.** -0.411 ± 0.11

**Q.** Which abundance fitness does the source give for YWITCCPTCDVDINTWVPFYSTELNKPAMIYCSHGDGHWVHLQCMDLAERTLIHLSAGSNKYYCNEHVEIARALHTP [A42L] here?
**A.** -0.684 ± 0.087

**Q.** With YWITCCPTCDVDINTWVPFYSTELNKPAMIYCSHGDGHWVHMQCMDLAERTLIHLSAGSNKYYCNEHVEIARALHTP [A42M] as the variant, how does the abundance fitness read?
**A.** -0.313 ± 0.14

**Q.** Which abundance fitness does the source give for YWITCCPTCDVDINTWVPFYSTELNKPAMIYCSHGDGHWVHPQCMDLAERTLIHLSAGSNKYYCNEHVEIARALHTP [A42P] here?
**A.** -0.717 ± 0.15

**Q.** With YWITCCPTCDVDINTWVPFYSTELNKPAMIYCSHGDGHWVHQQCMDLAERTLIHLSAGSNKYYCNEHVEIARALHTP [A42Q] as the variant, how does the abundance fitness read?
**A.** -0.605 ± 0.17

**Q.** For YWITCCPTCDVDINTWVPFYSTELNKPAMIYCSHGDGHWVHSQCMDLAERTLIHLSAGSNKYYCNEHVEIARALHTP [A42S], which abundance fitness is on record?
**A.** -0.177 ± 0.077

**Q.** With YWITCCPTCDVDINTWVPFYSTELNKPAMIYCSHGDGHWVHTQCMDLAERTLIHLSAGSNKYYCNEHVEIARALHTP [A42T] as the variant, how does the abundance fitness read?
**A.** -0.744 ± 0.12

**Q.** With YWITCCPTCDVDINTWVPFYSTELNKPAMIYCSHGDGHWVHWQCMDLAERTLIHLSAGSNKYYCNEHVEIARALHTP [A42W] as the variant, how does the abundance fitness read?
**A.** -0.643 ± 0.067

**Q.** With YWITCCPTCDVDINTWVPFYSTELNKPAMIYCSHGDGHWVHYQCMDLAERTLIHLSAGSNKYYCNEHVEIARALHTP [A42Y] as the variant, how does the abundance fitness read?
**A.** -0.626 ± 0.4

**Q.** For YWITCCPTCDVDINTWVPFYSTELNKPAMIYCSHGDGHWVHAACMDLAERTLIHLSAGSNKYYCNEHVEIARALHTP [Q43A], which abundance fitness is on record?
**A.** -0.397 ± 0.5

**Q.** Which abundance fitness does the source give for YWITCCPTCDVDINTWVPFYSTELNKPAMIYCSHGDGHWVHAECMDLAERTLIHLSAGSNKYYCNEHVEIARALHTP [Q43E] here?
**A.** -0.344 ± 0.25

**Q.** Which abundance fitness does the source give for YWITCCPTCDVDINTWVPFYSTELNKPAMIYCSHGDGHWVHAGCMDLAERTLIHLSAGSNKYYCNEHVEIARALHTP [Q43G] here?
**A.** -0.203 ± 0.14

**Q.** With YWITCCPTCDVDINTWVPFYSTELNKPAMIYCSHGDGHWVHALCMDLAERTLIHLSAGSNKYYCNEHVEIARALHTP [Q43L] as the variant, how does the abundance fitness read?
**A.** -0.196 ± 0.12

**Q.** Which abundance fitness does the source give for YWITCCPTCDVDINTWVPFYSTELNKPAMIYCSHGDGHWVHAMCMDLAERTLIHLSAGSNKYYCNEHVEIARALHTP [Q43M] here?
**A.** -0.048 ± 0.19

**Q.** For YWITCCPTCDVDINTWVPFYSTELNKPAMIYCSHGDGHWVHAPCMDLAERTLIHLSAGSNKYYCNEHVEIARALHTP [Q43P], which abundance fitness is on record?
**A.** -0.771 ± 0.48

**Q.** With YWITCCPTCDVDINTWVPFYSTELNKPAMIYCSHGDGHWVHARCMDLAERTLIHLSAGSNKYYCNEHVEIARALHTP [Q43R] as the variant, how does the abundance fitness read?
**A.** 0.129 ± 0.17

**Q.** For YWITCCPTCDVDINTWVPFYSTELNKPAMIYCSHGDGHWVHASCMDLAERTLIHLSAGSNKYYCNEHVEIARALHTP [Q43S], which abundance fitness is on record?
**A.** -0.174 ± 0.21

**Q.** For YWITCCPTCDVDINTWVPFYSTELNKPAMIYCSHGDGHWVHATCMDLAERTLIHLSAGSNKYYCNEHVEIARALHTP [Q43T], which abundance fitness is on record?
**A.** 0.107 ± 0.36

**Q.** Which abundance fitness does the source give for YWITCCPTCDVDINTWVPFYSTELNKPAMIYCSHGDGHWVHAVCMDLAERTLIHLSAGSNKYYCNEHVEIARALHTP [Q43V] here?
**A.** -0.116 ± 0.12

**Q.** Which abundance fitness does the source give for YWITCCPTCDVDINTWVPFYSTELNKPAMIYCSHGDGHWVHAQAMDLAERTLIHLSAGSNKYYCNEHVEIARALHTP [C44A] here?
**A.** -1.02 ± 0.13

**Q.** With YWITCCPTCDVDINTWVPFYSTELNKPAMIYCSHGDGHWVHAQDMDLAERTLIHLSAGSNKYYCNEHVEIARALHTP [C44D] as the variant, how does the abundance fitness read?
**A.** -0.765 ± 0.17

**Q.** Which abundance fitness does the source give for YWITCCPTCDVDINTWVPFYSTELNKPAMIYCSHGDGHWVHAQEMDLAERTLIHLSAGSNKYYCNEHVEIARALHTP [C44E] here?
**A.** -1.08 ± 0.23

**Q.** With YWITCCPTCDVDINTWVPFYSTELNKPAMIYCSHGDGHWVHAQFMDLAERTLIHLSAGSNKYYCNEHVEIARALHTP [C44F] as the variant, how does the abundance fitness read?
**A.** -0.952 ± 0.31

**Q.** Which abundance fitness does the source give for YWITCCPTCDVDINTWVPFYSTELNKPAMIYCSHGDGHWVHAQGMDLAERTLIHLSAGSNKYYCNEHVEIARALHTP [C44G] here?
**A.** -1.01 ± 0.11

**Q.** With YWITCCPTCDVDINTWVPFYSTELNKPAMIYCSHGDGHWVHAQHMDLAERTLIHLSAGSNKYYCNEHVEIARALHTP [C44H] as the variant, how does the abundance fitness read?
**A.** -1.09 ± 0.3

**Q.** Which abundance fitness does the source give for YWITCCPTCDVDINTWVPFYSTELNKPAMIYCSHGDGHWVHAQIMDLAERTLIHLSAGSNKYYCNEHVEIARALHTP [C44I] here?
**A.** -0.972 ± 0.18

**Q.** For YWITCCPTCDVDINTWVPFYSTELNKPAMIYCSHGDGHWVHAQKMDLAERTLIHLSAGSNKYYCNEHVEIARALHTP [C44K], which abundance fitness is on record?
**A.** -1.23 ± 0.38

**Q.** With YWITCCPTCDVDINTWVPFYSTELNKPAMIYCSHGDGHWVHAQLMDLAERTLIHLSAGSNKYYCNEHVEIARALHTP [C44L] as the variant, how does the abundance fitness read?
**A.** -0.806 ± 0.064

**Q.** Which abundance fitness does the source give for YWITCCPTCDVDINTWVPFYSTELNKPAMIYCSHGDGHWVHAQMMDLAERTLIHLSAGSNKYYCNEHVEIARALHTP [C44M] here?
**A.** -1.15 ± 0.45

**Q.** For YWITCCPTCDVDINTWVPFYSTELNKPAMIYCSHGDGHWVHAQNMDLAERTLIHLSAGSNKYYCNEHVEIARALHTP [C44N], which abundance fitness is on record?
**A.** -0.732 ± 0.32

**Q.** For YWITCCPTCDVDINTWVPFYSTELNKPAMIYCSHGDGHWVHAQPMDLAERTLIHLSAGSNKYYCNEHVEIARALHTP [C44P], which abundance fitness is on record?
**A.** -0.943 ± 0.12

**Q.** With YWITCCPTCDVDINTWVPFYSTELNKPAMIYCSHGDGHWVHAQQMDLAERTLIHLSAGSNKYYCNEHVEIARALHTP [C44Q] as the variant, how does the abundance fitness read?
**A.** -0.969 ± 0.12

**Q.** For YWITCCPTCDVDINTWVPFYSTELNKPAMIYCSHGDGHWVHAQRMDLAERTLIHLSAGSNKYYCNEHVEIARALHTP [C44R], which abundance fitness is on record?
**A.** -1.02 ± 0.1

**Q.** Which abundance fitness does the source give for YWITCCPTCDVDINTWVPFYSTELNKPAMIYCSHGDGHWVHAQSMDLAERTLIHLSAGSNKYYCNEHVEIARALHTP [C44S] here?
**A.** -0.998 ± 0.12
